Assay results as given in the nanobody polyreactivity screen of Harvey et al. (2022).

Assay: yeast display, Sf9 membrane polyspecificity reagent, FACS + sequencing; frameworks hold sequencing errors
Procedure, shortened: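 Galactose induction of a Saccharomyces cerevisiae BJ5465 synthetic nanobody display library ran 36–48 hours. The cells were then stained for 1 hour at 4 °C with 10% biotinylated, detergent-solubilized Sf9 membrane reagent, pulled down on streptavidin microbeads and FACS-sorted into low and high (top ~1%) gates on expression and reagent-binding fluorescence. Labels for polyreactivity follow the gate of origin.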

Sequence | polyreactivity (PSR sort gate)
QVQLVESGGGLVQAGGSLRLSCAASGRIFVRYAMGWYRQAPGKERELVAAISSRGGTTYYADSVKGRFTISRDNAKNTVYLQMNSLKPEDTAVYYCAALYDSTYGGVLFDYWGQGTQVTVSS | low polyreactivity
QVQLVESGGGLVQAGGSLRLSCAASGRIFVRYVMGWYRLAPGKERELVAAINWNGGSTYYADSVKGRFTISRDNAKNTVYLQMNSLKPEDTAVYYGAARGQFYNTRGGYWGQGTQVTVSS | high polyreactivity
QVQLVESGGGLVQAGGSLRLSCAASGRIFVSNAMGWYRQAPGKERELVAAISKSGGRTYYADSVKGRFTISRDNAKNTVYLQMNSLKPEDTAVYYCAARSRVSPRYDYWGQGTQVTVSS | high polyreactivity
QVQLVESGGGLVQAGGSLRLSCAASGRIFVSNAMGWYRQAPGKERELVAGINSGDRTYYADSVKGRFTISRDNAKNTVYLQMNSLNPEDTAVYYFADSSRRGTGLRYYWGQGTQVTVSS | high polyreactivity
QVQLVESGGGLVQAGGSLRLSCAASGRIFVSYAMGWYRQAPGKERELVADMSWSGSITYYADSVKGRFTISRDNAKNTVYLQMNSLKPEDTAVYYCAKKSIYDYSTTYPEYDYWGQGTQVTVSS | low polyreactivity
QVQLVESGGGLVQAGGSLRLSCAASGRIFVTNAMGWYRQAPGKERELVAAISTGGSTNYADSVKGRFTISRDNAKNTVYVQRNSLKPEDTAVYYCNRGSRYSHKYDYWGQGTQVTVSP | high polyreactivity
QVQLVESGGGLVQAGGSLRLSCAASGRIFVTNAMGWYRQAPGKERELVAAISYRGGRTYYADSVKGRFTISRDNAKNTVYLQMNSLKPEDTAVYYCNAVTRGPFDYWGQGTQVTVSS | high polyreactivity
QVQLVESGGGLVQAGGSLRLSCAASGRIFVTYVMGWYRPAPGKERELVAAISRRGGTTYYADSVKGRFTISRDNAKNTVYLQMNSLKPEDTAVYYCNVARHYAVESGYWGQGTQVTVSS | high polyreactivity
QVQLVESGGGLVQAGGSLRLSCAASGRIFVVYAMGWYRQAPGKERELVAAIRSGGSTNYADSVKGRFTISRDNAKNTVYLQMNSLKPEDTAVYYCADCKWHSAYDYWGQGTQVTVSS | high polyreactivity
QVQLVESGGGLVQAGGSLRLSCAASGRIFVVYAMGWYRQAPGKERELVATITSGGSTYYADSVKGRFTISRDNAKNTVYLQMNSLKPEDTAVYYCAAYAYIFLDWGGYPYYLYEYDYWGQGTQVTVSS | low polyreactivity
QVQLVESGGGLVQAGGSLRLSCAASGRIFVVYVMGWYRQAPGKERELVAAISYSTGSTYYADSVKGRFTISRDNAKNTVYLQMKSLKPEDTAVYYCAVAAARKSFVSRYYYWGQGTQVTVSS | low polyreactivity
QVQLVESGGGLVQAGGSLRLSCAASGRIFVYNAMGWYRQAPGKERELVATISSGGSTNYADSVKGRFTISRDNAKNTVYLQMNSLKPEDTAVYYCAARFYVSNSRISARNYWGQGTQVTVSS | high polyreactivity
QVQLVESGGGLVQAGGSLRLSCAASGRIFVYNTMGWYRQAPGKERELVAAMSWSGVGTYYADSVKGRFTISRDKAKNTVYLQMNSLKPEDTAVYYCNAWIYYGYFIFDYWGQGTQVTVSS | high polyreactivity
QVQLVESGGGLVQAGGSLRLSCAASGRIFVYYAMGWYRQAPGQEREFVATISSTGGSTYYADSVKGRFTISRDNAKNTVYLQMNSLKPEDTAVYYCAVRGWYPGVRYDYWGQGTQVTVSS | low polyreactivity
QVQLVESGGGLVQAGGSLRLSCAASGRIFVYYVMGWYRQAPGKERELVASITFRGSRTYYADSVKGRFTISRDNAKNTVYLQMNSLKTEETAGYYCNADVWASGSRGEGYWGQGSQVTVSS | low polyreactivity
QVQLVESGGGLVQAGGSLRLSCAASGRIFWANAMGWYRQAPGKERELVAAISYSGVSTYYADSVKGRFTISRDNAKNTVYLQMNSLKPADTAVYYCAADRYRKYYYWGQGTQVTVSS | high polyreactivity
QVQLVESGGGLVQAGGSLRLSCAASGRIFWAYAMGWYRQAPGKERELVAVITIGGRTNYADSVKGRFTISRDNAKNTVYLQMNSLKPEDTAVYYCAAERHIITWPYSRYYYWGQGTQVTVSS | high polyreactivity
QVQLVESGGGLVQAGGSLRLSCAASGRIFWFYTMGWNRQAPGKERELVARITTSGGSTYYADSVKGRFTISRDNAKNTVYLQMNSLKPEDTAVYYCAARPRDYHSFSLDYYYWGQGTQVTVSS | high polyreactivity
QVQLVESGGGLVQAGGSLRLSCAASGRIFWGYAMGWYRQAPGKERELVAGITSGGITNYADSVKGRFTISRDNAKNTVYLQMNSLKPEDTAVYYCNKDFWGYPRVRYYYWGQGTQVNVSS | high polyreactivity
QVQLVESGGGLVQAGGSLRLSCAASGRIFWHNAMGWYRQAPGKERELVAAITGGGSTYYADSVKGRFTISRDNAKNTVYLQMNSLKPEDTAVYYCATLGSLRYYWPGYDYWGQGTQGTVSS | high polyreactivity
QVQLVESGGGLVQAGGSLRLSCAASGRIFWINAMGWYRQAPGKERELVAAISWRGDSTYYADSVKGRFTISRDNAKNTVYLQMNSLKPEDTAVYYCAAETRYLYDYWGQGSQVTVSS | high polyreactivity
QVQLVESGGGLVQAGGSLRLSCAASGRIFWKYTMGWYRQAPGKERELVAAIRSGGGSTYYADSVKGRFTISRDNAKNTVYLQLNSLKPEDTAFYYCAAEPSQRYPWSGYDYWGQGTQVTVSS | low polyreactivity

Sequence | polyreactivity (PSR sort gate)
QVQLVESGGGLVQAGGSLRLSCAASGRIFWNYAMGGYRQAPGKERELVASINWSGGSTYYADSVKGRFTISRDNAKNTVYLQMNSLKPEDTAVYYCNKDGRVYLDHDYWGQGTQVTVSS | low polyreactivity
QVQLVESGGGLVQAGGSLRLSCAASGRIFWNYAMGWYRQAPGKERELVAGISSSDGSTYYADSVKGRFTISRDNAKNTVYFQMNSLKPEDTAVYYCAVDKGGRYHVENYYWGQGTQVTVSS | low polyreactivity
QVQLVESGGGLVQAGGSLRLSCAASGRIFWPYAMGWYRQAPGKERELVAAISSSGGSTYYADSVKGRFTISRDNAKNTVYLQRNSLKPEDTAVYYCNAYSGLSYRYGYSYWGQGTQVTVSS | high polyreactivity
QVQLVESGGGLVQAGGSLRLSCAASGRIFWPYAMGWYRQAPGKERELVAAITSGGSTYYADSVKGRFTISRDNAKNTVYLQMNSLKPEDTAVYYCAKRSSGVSVPVAYGGIKRYNSWGQGTQVTVSS | low polyreactivity
QVQLVESGGGLVQAGGSLRLSCAASGRIFWQNAMGWYRQAPGKERELVAAISSRGGTTYYADSVKGRFTISRDNAKNTVYLQMNSLIPEDTAVYYCNAALLLRYRGFFTVAAYDYWGQGTQVTVSS | low polyreactivity
QVQLVESGGGLVQAGGSLRLSCAASGRIFWQNAMGWYRQAPGKERELVAAISSRGGTTYYADSVKGRFTISRDNAKNTVYLQMNSLKPEDTAVYYCNAALLLRYRGFFTVAAYDYWGLGTQVTVSS | low polyreactivity
QVQLVESGGGLVQAGGSLRLSCAASGRIFWRNTMGWYRQAPGKERELVAAITGSSTRTYYADSVKGRFTISRDNAKNTVYLQMNSLKPEDTAVYYCAARSYPYQVAAGYVTRFNYWGQGTQVTVSS | high polyreactivity
QVQLVESGGGLVQAGGSLRLSCAASGRIFWSNAMGWYRQAPGKEREFVAAISSSGGRTYYADSVKGRFTISRDNAKNTVYLQMNSLKPEDTAVYYCAASNGYQAVTYDYWGQGTQVTVSS | high polyreactivity
QVQLVESGGGLVQAGGSLRLSCAASGRIFWSYAMGWYRPAPGKERELVAAIRSGGTTDYADSVKGRFTISRDNAKNTVYLQMNSLKPEDTAVYYCNREYRGAINYIYYYWGQGTQVTVSS | low polyreactivity
QVQLVESGGGLVQAGGSLRLSCAASGRIFWVYAMGWYRQAPGKERELVAAIDWSDGITYYADSVKGRFTISRDNAKNTVYLQMNSRKPEDTAVYYCGAEYVIYQTYNYWGQGTQVTVSS | high polyreactivity
QVQLVESGGGLVQAGGSLRLSCAASGRIFWWYAMGWYRQAPGKERELVAVIDDSGGITYYADSVKGRFTISRDKANNTVYLQMNSLNPEDTAVYYCARNVNAQKVLGGFDSWGQGTQVTVSS | low polyreactivity
QVQLVESGGGLVQAGGSLRLSCAASGRIFWYYAMGWYRQAPGKDWELVATITYSGVRTYYADSVKGRFTISRDNAKNSVYLQMNSLKPEDTAVYYCAAVPGASVYGYYWKFGYWGQGTQLTVSS | high polyreactivity
QVQLVESGGGLVQAGGSLRLSCAASGRIFWYYAMGWYRQAPGKEREFVAAIDWSGGRTYYADSVKGRFTISRDNAKNTVYLQMNSLKPEDTAVYYCAARDRAGRGKSYKPYYYWGQGTQVTVSS | high polyreactivity
QVQLVESGGGLVQAGGSLRLSCAASGRIFWYYAMGWYRQAPGKERELVARISSSGGSTYYADSVKGRFTISRDNAKNTVYLQMNSLKPEDTAVYYCAAEHYILYDYLWAYDYWGQGTQVTVSS | high polyreactivity
QVQLVESGGGLVQAGGSLRLSCAASGRIFWYYDMGWYRQAPGKERELVAAISQRGGSTYYADSVKGRFTISRDNAKNTVYLQMKSLKPEDTAVYYCAKRNPYWATREYWGLGTQVTVSS | high polyreactivity
QVQLVESGGGLVQAGGSLRLSCAASGRIFWYYGMGWYRQAPGKERELVAAITSGGRTYYADSVKGRFTISRDNAKNTVYLQMNSLKPEDTAVYYCAKGYVRYPSKGYTFDYWGQGTQVTVSS | high polyreactivity
QVQLVESGGGLVQAGGSLRLSCAASGRIFWYYTMGWYRQAPGKERELVAAISNGGSTYYADSVKGRFTISRDNAKNPVYLQMNSLKPEDTAVYYCAADNFRNPDYYYWGQGTQVTVSS | high polyreactivity
QVQLVESGGGLVQAGGSLRLSCAASGRIFYAYAMGWYRQAPGKETELVAAITWRGGRTFYADSVKGRFTISRDNAKNTVYFQMNSLKPEDTAVYYCATRGAPYGMDYWGQGTQVTVSS | high polyreactivity
QVQLVESGGGLVQAGGSLRLSCAASGRIFYAYTIGWYRQAPGKERELVAAISGSGSTYYADSVKGRFTISRDNAKNTVYLQMNSLKPVDTAVYYCAADVTGGRKYDYWGQGTQVSVSS | low polyreactivity
QVQLVESGGGLVQAGGSLRLSCAASGRIFYDNTMGWYRQAPGKERELVATISSAASTNYADSVKGRFTISRDNAKNTVYLQMNSLKPEDTAVYYCAAEWSTYGYQVLPVDYDYWGQGTQVTVSS | low polyreactivity
QVQLVESGGGLVQAGGSLRLSCAASGRIFYDNTMGWYRQAPGKERELVAVISWSTGGTYADSVKGRFTISRDNAKNTVYLQMNSLKPEDTAVYYCATPLGYGPDLDYWGQGTQVTVSS | low polyreactivity
